Laboratory results taken from the supplement of paper PMC10567573.

B1: CDC14A (parent)
chain: LWVQGDIFRSKLKNRPSSEGSINK

Variants of: B1
Assay: protein stability index of a GFP-peptide fusion (GPS, HEK-293T) (PSI 1-6); higher = more stable
Conditions: c terminus: a fixed tail appended
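Further: lentivirally expressed fusions sorted by FACS into six bins by GFP to DsRed ratio, PSI derived from sequencing read proportions per bin multiplied by bin number.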

In order of rising protein stability index:
1. LWVQYDIFRSKLKNRPSSEGSINK  1.39
2. LWVQVDIFRSKLKNRPSSEGSINK  1.53
3. LWVQGDIFRSILKNRPSSEGSINK  1.66
4. LWVFGDIFRSKLKNRPSSEGSINK  1.73
5. LWVQMDIFRSKLKNRPSSEGSINK  1.75
6. LWVVGDIFRSKLKNRPSSEGSINK  1.81
7. LWVWGDIFRSKLKNRPSSEGSINK  1.82
8. LWVRGDIFRSKLKNRPSSEGSINK  1.87
9. LWVQWDIFRSKLKNRPSSEGSINK  1.87
10. LWVQGDIFWSKLKNRPSSEGSINK  1.88
11. LWVAGDIFRSKLKNRPSSEGSINK  1.9
12. LWVQGDIFRSYLKNRPSSEGSINK  1.93
13. LWVYGDIFRSKLKNRPSSEGSINK  1.95
14. LWHQGDIFRSKLKNRPSSEGSINK  1.99
15. LWVQGDIFRSWLKNRPSSEGSINK  2.04
16. LWVQADIFRSKLKNRPSSEGSINK  2.06
17. LWLQGDIFRSKLKNRPSSEGSINK  2.07
18. LWVIGDIFRSKLKNRPSSEGSINK  2.11
19. LWVQGDIFMSKLKNRPSSEGSINK  2.18
20. LWVKGDIFRSKLKNRPSSEGSINK  2.19
21. LWVEGDIFRSKLKNRPSSEGSINK  2.19
22. LWVQGDIFRSCLKNRPSSEGSINK  2.22
23. LWVQGDIFCSKLKNRPSSEGSINK  2.22
24. LWVQGDIFRSLLKNRPSSEGSINK  2.23
25. LWVQGDIFRSALKNRPSSEGSINK  2.26
26. LWVQTDIFRSKLKNRPSSEGSINK  2.29
27. LWVQKDIFRSKLKNRPSSEGSINK  2.3
28. LWVQCDIFRSKLKNRPSSEGSINK  2.3
29. LWVQGDIFRSFLKNRPSSEGSINK  2.3
30. LWVQGDIFRSQLKNRPSSEGSINK  2.33
31. LWVQIDIFRSKLKNRPSSEGSINK  2.35
32. LWVQRDIFRSKLKNRPSSEGSINK  2.35
33. LWVQGDIFLSKLKNRPSSEGSINK  2.35
34. LWVQGDIFRSVLKNRPSSEGSINK  2.36
35. LWVQGDIFYSKLKNRPSSEGSINK  2.37
36. LWVQGDIFRSDLKNRPSSEGSINK  2.38
37. LWVQGDIFISKLKNRPSSEGSINK  2.4
38. LWVTGDIFRSKLKNRPSSEGSINK  2.41
39. LWVCGDIFRSKLKNRPSSEGSINK  2.46
40. LWVQGDIFRSMLKNRPSSEGSINK  2.49
41. LWVQHDIFRSKLKNRPSSEGSINK  2.52
42. LWVQSDIFRSKLKNRPSSEGSINK  2.52
43. LWVQGDIFHSKLKNRPSSEGSINK  2.55
44. LWWQGDIFRSKLKNRPSSEGSINK  2.55
45. LWVQGDIFGSKLKNRPSSEGSINK  2.56
46. LWVQGDIFFSKLKNRPSSEGSINK  2.57
47. LWVQFDIFRSKLKNRPSSEGSINK  2.59
48. LVVQGDIFRSKLKNRPSSEGSINK  2.6
49. LWVQGDIFSSKLKNRPSSEGSINK  2.6
50. LWVLGDIFRSKLKNRPSSEGSINK  2.62
51. LWVQNDIFRSKLKNRPSSEGSINK  2.63
52. LWVQGDIFRSELKNRPSSEGSINK  2.63
53. LWFQGDIFRSKLKNRPSSEGSINK  2.64
54. LWVQGDIFVSKLKNRPSSEGSINK  2.65
55. LWVNGDIFRSKLKNRPSSEGSINK  2.66
56. LWVHGDIFRSKLKNRPSSEGSINK  2.67
57. LWVQPDIFRSKLKNRPSSEGSINK  2.69
58. LWVQGDIFRSHLKNRPSSEGSINK  2.69
59. LWNQGDIFRSKLKNRPSSEGSINK  2.71
60. LWVQGDIFRSRLKNRPSSEGSINK  2.72
61. LWMQGDIFRSKLKNRPSSEGSINK  2.73
62. LWVPGDIFRSKLKNRPSSEGSINK  2.74
63. LWVQQDIFRSKLKNRPSSEGSINK  2.76
64. LWVQGDIFTSKLKNRPSSEGSINK  2.85
65. LWYQGDIFRSKLKNRPSSEGSINK  2.89
66. LWVQGDIFQSKLKNRPSSEGSINK  2.91
67. LWVQLDIFRSKLKNRPSSEGSINK  2.92
68. LWCQGDIFRSKLKNRPSSEGSINK  2.94
69. LWVQGDIFRSSLKNRPSSEGSINK  2.99
70. LWVQGDIFRSNLKNRPSSEGSINK  3
71. LWVQGDIFKSKLKNRPSSEGSINK  3.02
72. LWVQGDIFASKLKNRPSSEGSINK  3.05
73. LWSQGDIFRSKLKNRPSSEGSINK  3.06
74. LWTQGDIFRSKLKNRPSSEGSINK  3.12
75. LWVQGDIFPSKLKNRPSSEGSINK  3.18
76. LWGQGDIFRSKLKNRPSSEGSINK  3.18
77. LWVQDDIFRSKLKNRPSSEGSINK  3.21
78. LWVQGDIFESKLKNRPSSEGSINK  3.21
79. LWVQGDIFRSPLKNRPSSEGSINK  3.22
80. LWKQGDIFRSKLKNRPSSEGSINK  3.26
81. LWVSGDIFRSKLKNRPSSEGSINK  3.29
82. LWQQGDIFRSKLKNRPSSEGSINK  3.32
83. LWVQEDIFRSKLKNRPSSEGSINK  3.34
84. LWRQGDIFRSKLKNRPSSEGSINK  3.34
85. LWVQGDIFNSKLKNRPSSEGSINK  3.4
86. LWAQGDIFRSKLKNRPSSEGSINK  3.45
87. LRVQGDIFRSKLKNRPSSEGSINK  3.46
88. LWDQGDIFRSKLKNRPSSEGSINK  3.58
89. LWVQGDIFRSGLKNRPSSEGSINK  3.68
90. LWVQGDIFDSKLKNRPSSEGSINK  3.68
91. LWPQGDIFRSKLKNRPSSEGSINK  3.94
92. LSVQGDIFRSKLKNRPSSEGSINK  4.49
93. LTVQGDIFRSKLKNRPSSEGSINK  4.6
94. LWEQGDIFRSKLKNRPSSEGSINK  4.85
